Holding throughout (assay): holdup assay
Common to all, as to design: key: below the threshold = too weak to quantify, mostly under pKd 3.1 to 4

Experiment [1] has as its target HTRA2, O43464.
The target of experiment [2] is T1, MPP6, Q9NZW5.
T1 sequence (Q9NZW5 125-219, limits assumed, looked up): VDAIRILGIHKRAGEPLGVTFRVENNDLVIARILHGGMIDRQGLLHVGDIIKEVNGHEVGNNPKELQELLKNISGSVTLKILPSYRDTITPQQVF

The target in experiment [3] is T2, SNTA1, Q13424.
T2 sequence (Q13424 82-180, limits assumed, looked up): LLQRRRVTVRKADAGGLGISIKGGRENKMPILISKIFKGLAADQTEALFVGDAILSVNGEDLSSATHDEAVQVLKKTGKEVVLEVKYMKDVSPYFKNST

For experiment [4], the target named is T3, TJP3_3, O95049.
T3 sequence (O95049 375-456, limits assumed, looked up): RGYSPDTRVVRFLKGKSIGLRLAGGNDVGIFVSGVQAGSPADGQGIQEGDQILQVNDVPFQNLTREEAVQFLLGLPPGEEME

The target of experiment [5] is DLG2_3, Q15700.
Experiment [6] addresses T4, DFNB31_2, Q9P202.
T4 sequence (Q9P202 274-371, limits assumed, looked up): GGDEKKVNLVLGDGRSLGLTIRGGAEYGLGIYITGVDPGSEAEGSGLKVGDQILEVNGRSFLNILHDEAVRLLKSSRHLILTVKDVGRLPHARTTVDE

Experiment [7] deals with T5, GRIP1_5, Q9Y3R0.
T5 sequence (Q9Y3R0 568-668, limits assumed, looked up): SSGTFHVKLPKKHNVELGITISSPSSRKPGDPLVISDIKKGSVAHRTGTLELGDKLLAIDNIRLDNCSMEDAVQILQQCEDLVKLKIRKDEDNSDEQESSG

In experiment [8] the target is GRIP2_5, Q9C0E4.
Experiment [9] has as its target AHNAK1, Q09666.
Experiment [10] addresses T6, APBA1_1, Q02410.
T6 sequence (Q02410 651-752, limits assumed, looked up): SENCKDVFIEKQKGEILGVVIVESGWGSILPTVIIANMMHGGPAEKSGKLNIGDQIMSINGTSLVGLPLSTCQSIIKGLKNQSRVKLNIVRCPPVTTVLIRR

Experiment [11] concerns the target GORASP2, Q9H8Y8.
For experiment [12], the target named is T7, PTPN13_1, Q12923.
T7 sequence (Q12923 1088-1188, limits assumed, looked up): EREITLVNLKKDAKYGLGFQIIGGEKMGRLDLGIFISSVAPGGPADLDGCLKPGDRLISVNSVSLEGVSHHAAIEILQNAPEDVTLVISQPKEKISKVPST

For experiment [13], the target named is T8, TX1BP3, O14907.
T8 sequence (O14907 10-122, limits assumed, looked up): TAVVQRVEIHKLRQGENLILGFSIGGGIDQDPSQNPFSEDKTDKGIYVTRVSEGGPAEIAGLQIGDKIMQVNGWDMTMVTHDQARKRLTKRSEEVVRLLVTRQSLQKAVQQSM

The target of experiment [14] is T9, SIPA1L2, Q9P2F8.
T9 sequence (Q9P2F8 945-1036, limits assumed, looked up): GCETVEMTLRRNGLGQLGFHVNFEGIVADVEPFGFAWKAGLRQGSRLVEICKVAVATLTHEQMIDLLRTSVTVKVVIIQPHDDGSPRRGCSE

Experiment [15] deals with TJP1_2, Q07157.
Experiment [16] concerns the target T10, GRIP1_3, Q9Y3R0.
T10 sequence (Q9Y3R0 247-346, limits assumed, looked up): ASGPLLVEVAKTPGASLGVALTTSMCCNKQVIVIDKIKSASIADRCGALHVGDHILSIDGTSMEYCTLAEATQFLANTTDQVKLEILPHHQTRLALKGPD

The target of experiment [17] is T11, LNX2_2, Q8N448.
T11 sequence (Q8N448 334-432, limits assumed, looked up): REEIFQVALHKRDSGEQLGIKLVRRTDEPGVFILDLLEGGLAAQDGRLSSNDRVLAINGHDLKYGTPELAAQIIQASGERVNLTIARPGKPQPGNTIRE

The target in experiment [18] is GRIP2_3, Q9C0E4.
The target of experiment [19] is T12, MPDZ_10, O75970.
T12 sequence (O75970 1624-1722, limits assumed, looked up): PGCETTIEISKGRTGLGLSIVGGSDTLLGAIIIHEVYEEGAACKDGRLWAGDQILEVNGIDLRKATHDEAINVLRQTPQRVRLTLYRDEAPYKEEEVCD

The target of experiment [20] is T13, CARD11, Q9BXL7.
T13 sequence (Q9BXL7 662-765, limits assumed, looked up): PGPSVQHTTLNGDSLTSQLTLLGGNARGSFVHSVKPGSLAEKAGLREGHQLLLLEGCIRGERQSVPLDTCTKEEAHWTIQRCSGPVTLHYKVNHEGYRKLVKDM

Experiment [21] addresses Inadl_4, Q8NI35.
Experiment [22] has as its target T14, GRIP1_2, Q9Y3R0.
T14 sequence (Q9Y3R0 145-248, limits assumed, looked up): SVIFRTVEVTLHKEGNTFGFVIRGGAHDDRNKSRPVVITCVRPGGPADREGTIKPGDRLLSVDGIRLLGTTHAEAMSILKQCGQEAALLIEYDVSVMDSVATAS

Where [23] appears, read: plain residues with an end cap or a label only (N-terminal biotin on a linker: ttds).
Where [24] appears, read: plain residues with an end cap or a label only (N-terminal biotin on a linker: ahx).

HTRA2, O43464, sequence (O43464 355-458): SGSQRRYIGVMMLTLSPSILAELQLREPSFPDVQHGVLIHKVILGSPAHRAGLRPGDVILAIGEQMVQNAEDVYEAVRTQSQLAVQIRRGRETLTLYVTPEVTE
GRIP2_5, Q9C0E4, sequence (Q9C0E4 544-642): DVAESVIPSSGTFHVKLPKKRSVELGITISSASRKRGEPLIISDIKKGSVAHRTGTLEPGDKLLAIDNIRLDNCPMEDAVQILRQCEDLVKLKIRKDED
GRIP2_3, Q9C0E4, sequence (Q9C0E4 238-339): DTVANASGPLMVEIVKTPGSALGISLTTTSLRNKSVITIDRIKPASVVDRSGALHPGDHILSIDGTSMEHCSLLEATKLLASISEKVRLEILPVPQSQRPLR
TJP1_2, Q07157, sequence (Q07157 181-274): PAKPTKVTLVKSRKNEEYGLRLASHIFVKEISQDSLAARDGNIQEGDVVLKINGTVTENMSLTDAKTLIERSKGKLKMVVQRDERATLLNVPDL
AHNAK1, Q09666, sequence (Q09666 4-100): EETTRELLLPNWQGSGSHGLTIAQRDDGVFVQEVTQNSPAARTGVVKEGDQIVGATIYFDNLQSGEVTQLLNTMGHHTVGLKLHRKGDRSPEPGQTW
Inadl_4, Q8NI35, sequence (Q8NI35 547-651): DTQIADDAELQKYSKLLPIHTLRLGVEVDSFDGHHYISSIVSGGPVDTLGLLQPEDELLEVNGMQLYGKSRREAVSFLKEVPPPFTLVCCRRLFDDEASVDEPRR

B1: DGKK, Q5KSL6 (peptide)
chain: DPLTPSRSQL
Take B1: the pKd entry in [1] (setting [23]) was “below the threshold”; in [2] (setting [23]) it was “below the threshold”; in [3] (setting [23]) it was “below the threshold”; in experiment [4] (setting [23]), “below the threshold”; in experiment [5] (setting [23]), 3.73; in experiment [6] (setting [23]), “below the threshold”. In addition, the pKd entry in [7] (setting [23]) was “below the threshold”; in [8] (setting [23]), “below the threshold”; in experiment [9] (setting [23]), “below the threshold”; in [10] (setting [23]), “below the threshold”; in experiment [11] (setting [23]), 4.21; in experiment [12] (setting [23]), “below the threshold”. For the same molecule, the negative logarithm of the Kd (pKd) entry in [13] (setting [23]), in [14] (setting [23]), in experiment [15] (setting [23]), in [16] (setting [23]), in experiment [17] (setting [23]) and in [18] (setting [23]) was “below the threshold” in each case. The pKd entry in experiment [19] (setting [23]), in [20] (setting [23]), in [21] (setting [23]) and in [22] (setting [23]) was “below the threshold” each time.

B2: ADRB2, P07550 (peptide)
chain: RNCSTNDSLL
With B2, the pKd result in experiment [1] (setting [24]), in experiment [2] (setting [24]), in [3] (setting [24]), in experiment [4] (setting [24]), in experiment [5] (setting [24]) and in [6] (setting [24]) was “below the threshold” throughout. The pKd entry was “below the threshold” in experiment [7] (setting [24]); “below the threshold” in experiment [8] (setting [24]); “below the threshold” in [9] (setting [24]); 3.63 in experiment [10] (setting [24]); 3.52 in experiment [11] (setting [24]); “below the threshold” in experiment [12] (setting [24]). For the same molecule, the negative logarithm of the Kd (pKd) in experiment [13] (setting [24]) was 3.49; in experiment [14] (setting [24]), “below the threshold”; in experiment [15] (setting [24]), “below the threshold”; in experiment [16] (setting [24]) it was “below the threshold”; in experiment [17] (setting [24]) it was “below the threshold”; in experiment [18] (setting [24]) it was “below the threshold”. Besides, the pKd in experiment [19] (setting [24]) is 3.69; in experiment [20] (setting [24]) it was “below the threshold”; in experiment [21] (setting [24]), “below the threshold”; in experiment [22] (setting [24]) it was “below the threshold”.

B3: ATP2B1, P20020 (peptide)
chain: SPLHSLETSL
As to B3, the negative logarithm of the Kd (pKd) entry in [1] (setting [23]) is “below the threshold”; in experiment [2] (setting [23]), “below the threshold”; in experiment [3] (setting [23]) it was 4.5; in [4] (setting [23]), “below the threshold”; in [5] (setting [23]), 4.07; in experiment [6] (setting [23]), “below the threshold”. Moreover, the pKd entry in experiment [7] (setting [23]), in [8] (setting [23]), in experiment [9] (setting [23]), in experiment [10] (setting [23]), in experiment [11] (setting [23]) and in experiment [12] (setting [23]) was “below the threshold” in each case. Further, the negative-log Kd (pKd) was 4.45 in experiment [13] (setting [23]); “below the threshold” in [14] (setting [23]); “below the threshold” in [15] (setting [23]); “below the threshold” in experiment [16] (setting [23]); “below the threshold” in experiment [17] (setting [23]); “below the threshold” in [18] (setting [23]). The pKd entry in experiment [19] (setting [23]), in experiment [20] (setting [23]), in [21] (setting [23]) and in [22] (setting [23]) was “below the threshold” each time.

B4: NHERF3, Q5T2W1 (peptide)
chain: SSSNSEDTEM
As for B4, the pKd result in experiment [1] (setting [24]), in [2] (setting [24]), in [3] (setting [24]), in experiment [4] (setting [24]), in [5] (setting [24]) and in experiment [6] (setting [24]) was “below the threshold” in each case. The pKd entry in [7] (setting [24]), in [8] (setting [24]), in [9] (setting [24]), in experiment [10] (setting [24]), in [11] (setting [24]) and in [12] (setting [24]) was “below the threshold” each time. In addition, the pKd entry in experiment [13] (setting [24]), in experiment [14] (setting [24]), in [15] (setting [24]), in experiment [16] (setting [24]), in [17] (setting [24]) and in experiment [18] (setting [24]) was “below the threshold” throughout. Moreover, the negative logarithm of the Kd (pKd) result in [19] (setting [24]), in [20] (setting [24]), in [21] (setting [24]) and in experiment [22] (setting [24]) was “below the threshold” each time.

The values are drawn from publication PMC9482650, “Quantitative fragmentomics allow affinity mapping of interactomes” (Nature Communications, 2022).
